In patent publication US20050136043A1, “TGFbeta signaling inhibitors” (Ludwig Institute for Cancer Research, priority 2003, published 2005):

Tests used:
[1] = target: T1, GST-TβR-I (Homo sapiens, UniProt P36897, T204D); assay: GST-TβR-I autophosphorylation assay; assay type: biochemical; conditions: peptides at 1 and 10 μM, FIG. 4A
T1 construct: the complete cytoplasmic part (amino acid residues 148-503) of constitutively active TβR-I (T204D) FLAG-tagged at the C-terminus; made in house; host or cells: E. coli
T1 sequence (P36897 148-503 T204D): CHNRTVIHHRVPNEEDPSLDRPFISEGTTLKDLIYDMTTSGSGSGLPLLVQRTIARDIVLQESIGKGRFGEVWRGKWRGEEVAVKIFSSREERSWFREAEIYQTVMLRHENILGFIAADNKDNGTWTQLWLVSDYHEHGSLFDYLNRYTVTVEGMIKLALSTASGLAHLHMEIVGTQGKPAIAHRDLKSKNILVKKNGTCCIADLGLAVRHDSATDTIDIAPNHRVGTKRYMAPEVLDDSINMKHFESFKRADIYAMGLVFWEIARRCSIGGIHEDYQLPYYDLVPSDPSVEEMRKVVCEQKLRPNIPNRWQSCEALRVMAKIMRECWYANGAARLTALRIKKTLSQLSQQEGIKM
Description: (§1) In vitro kinase assay: GST-TβRI activity was assayed in vitro using the known TβR-I substrates GST-Smad3deltaMH1, GST-Smad2; GST-Smad1 was used as a control for specificity. The reaction mixture (20 μl) contained 20 mM HEPES (pH 7.4), 10 mM MgCl2, 2 mM MnCl2, 1 mM dithiothreitol (DTT), 5 μM ATP plus 0.5 μCi [γ^32P]ATP (Redivue, Amersham Biosciences), and inhibitors at different concentrations. The reaction was initiated by an addition of 0.02 μg purified GST-TβRI, followed by incubation at 22° C. for 20 min. Reaction was terminated by addition of 5 μl of 5× SDS-sample buffer. Samples were subjected to SDS-PAGE followed by analysis in a FujiX2000 phosphorimager. For all in vitro enzyme assays, the percent inhibition was calculated as 100×(1-Ai/A0), where Ai and A0 are levels of GST-Smad phosphorylation in the presence and absence of inhibitors, respectively. […] Phosphorylated GST-Smad3deltaMH1 and autophosphorylated GST-TβRI were analyzed by tryptic phosphopeptide mapping, as described previously.
A GST-TβR-I autophosphorylation assay was performed in the absence or presence of antp-Sm2S (SEQ ID NO:3), antp-Sm2A (SEQ ID NO:2) and antp-Sm5A (SEQ ID NO:4) peptides at concentrations of 1 and 10 μM, as indicated (FIG. 4A).

[2] = target: T2, constitutively active TβR-I (Homo sapiens, UniProt P36897, T204D); assay: In vitro kinase assay with immunoprecipitated constitutively active TβR-I expressed in Mv1Lu cells; assay type: biochemical; conditions: immunoprecipitated from Mv1Lu cells, data not shown
T2 construct: made in house; host or cells: Mv1Lu cells (expressed, immunoprecipitated)
T2 sequence (P36897 34-503 T204D): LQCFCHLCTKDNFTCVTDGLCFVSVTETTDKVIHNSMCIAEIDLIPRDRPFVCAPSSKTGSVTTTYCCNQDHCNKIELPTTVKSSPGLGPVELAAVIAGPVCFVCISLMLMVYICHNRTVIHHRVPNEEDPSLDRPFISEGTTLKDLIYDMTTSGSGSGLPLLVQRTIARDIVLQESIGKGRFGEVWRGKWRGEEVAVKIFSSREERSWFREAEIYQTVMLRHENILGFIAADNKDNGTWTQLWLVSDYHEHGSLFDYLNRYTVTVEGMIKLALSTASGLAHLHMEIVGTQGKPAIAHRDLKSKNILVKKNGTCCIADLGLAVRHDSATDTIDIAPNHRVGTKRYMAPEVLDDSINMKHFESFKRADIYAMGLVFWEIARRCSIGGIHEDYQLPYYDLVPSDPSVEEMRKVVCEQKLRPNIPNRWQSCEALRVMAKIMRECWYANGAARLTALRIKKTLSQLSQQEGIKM

[3] = system: TGFβ1-dependent stimulation of ARE-luc in Mv1Lu cells; assay: ARE-luc luciferase reporter assay (Smad2-responsive element) in Mv1Lu cells; assay type: cell-based; conditions: peptide 50 μM, TGFβ1 10 ng/ml, 18 hours
[4] = system: Mv1Lu cells; assay: Growth inhibition assay, [3H]thymidine incorporation; assay type: cell-based; conditions: peptide 50 μM, TGFβ1 0.1 ng/ml, 24 hours; for Reversion of the inhibitory action of TGFβ1 on DNA synthesis: FIG. 7
Description: Growth inhibition assay: Growth inhibition assay with MV1Lu cells, using evaluation of [^3H]thymidine incorporation, was performed as described earlier. Briefly, cells were preincubated with peptides for 30 min, and then treated or not with TGFβ1 (0.1 ng/ml) for 24 h. During the last two hours of incubation, [^3H]thymidine was added. Radioactivity incorporated into DNA was measured in a scintillation counter. No cytotoxic effects of peptides were observed after 24 h incubation with cells, as evaluated by observation of cells in a microscope.
To explore whether the antp-Sm2A (SEQ ID NO:2) peptide can interfere with the TGFβ-dependent effects on cells, we performed an assay with Mv1Lu cells, which are widely used in studies of TGFβ effects and are potently growth-inhibited by TGFβ [29]. […] [^3H]thymidine was added to cells for last two hours of incubation, and radioactivity incorporated into DNA was measured.

[5] = target: T1, GST-TβR-I; assay: Phosphorylation of GST-Smad2 by GST-TβR-I, in vitro kinase assay; assay type: biochemical; conditions: for Inhibition of phosphorylation at the C-terminus of GST-Smad2: FIG. 4B; for Concentration at which effect of Sm2 peptides was observed / Concentration of maximal inhibition: in vitro kinase assay; for Concentration of maximal inhibition: data not shown
Description: as §1
Phosphorylation of GST-Smad2 by GST-TβR-I was performed in an in vitro kinase assay (FIG. 4B). The peptides were added as indicated.

Question: What does the source list for “RQIKIWFQNRRMKWKKTQMGSPSVRCSAMA (listed as Homo sapiens) [antp-Sm2A]”?
Answer: Inhibition of autophosphorylation of GST-TβR-I [1]: had a stronger effect; Inhibition of autophosphorylation of TβR-I [2]: inhibited autophosphorylation; Inhibition of TGFβ1-dependent stimulation of ARE-luc [3]: up to 31%; Inhibition of [3H]thymidine incorporation in response to TGFβ1 [4]: 26%; Reversion of the inhibitory action of TGFβ1 on DNA synthesis [4]: reverted to a significant extent; Inhibition of phosphorylation at the C-terminus of GST-Smad2 [5]: inhibited; Concentration at which effect of Sm2 peptides was observed [5]: 10 µM; Concentration of maximal inhibition [5]: 200 µM

Question: For “RQIKIWFQNRRMKWKKTQMGSPSVRCSSMS (listed as Homo sapiens) [antp-Sm2S, penetratin fused to the C-terminus of wild-type Smad2]”, which “Inhibition of autophosphorylation of GST-TβR-I” value [1] is on record?
Answer: Its value is “inhibited autophosphorylation”.

Question: What about the “Inhibition of autophosphorylation of TβR-I” value [2] of the same sequence?
Answer: The value was “inhibited autophosphorylation”.

Question: What about the “Effect on TGFβ1-dependent stimulation of ARE-luc” value [3] of the same sequence?
Answer: The value was “no effect”.

Question: What about the “Reversion of the inhibitory action of TGFβ1 on DNA synthesis” value [4] of the same sequence?
Answer: Its value is “reverted to a significant extent”.

Question: What about the “Inhibition of phosphorylation at the C-terminus of GST-Smad2” value [5] of the same sequence?
Answer: The value was “less pronounced”.

Question: What about the “Concentration at which effect of Sm2 peptides was observed” value [5] of the same sequence?
Answer: Its value is 10 µM.

Question: What about the “Concentration of maximal inhibition” value [5] of the same sequence?
Answer: Its value is 200 µM.
